To fix the notation:
B1: Chromodomain-helicase-DNA-binding protein 4, residues 365 to 417; numbered along this chain, Q14839 (parent)
chain: YETDHQDYCEVCQQGGEIILCDTCPRAYHMVCLDPDMEKAPEGKWSCPHCEKE

± gives the uncertainty stated by the source.

The data set covers variants of B1. Nature of the data set: abundance fitness (aPCA) (normalised: wild type 0, dead -1); higher = more abundant; growth selection in yeast, the domain comes from the species named. The note with it: Homo sapiens.
Regarding K52R, the abundance fitness is -0.106 ± 0.11.

In the case of K52V, the abundance fitness is -0.176 ± 0.099.

As for K52M, the abundance fitness was -0.376 ± 0.23.

For K52W, the abundance fitness was -0.346 ± 0.14.

As to K52P, the abundance fitness was -0.072 ± 0.16.

K52D: the abundance fitness was -0.39 ± 0.23.

Consider K52E, for which the abundance fitness is 0.136 ± 0.16.

On to K52H, for which the abundance fitness is 0.286 ± 0.23.

Take K52S: the abundance fitness amounted to 0.161 ± 0.14.

In the case of K52G, the abundance fitness was -0.204 ± 0.12.

As to S46P, the abundance fitness was -0.258 ± 0.14.

Take S46R: the abundance fitness was -0.137 ± 0.092.

In the case of S46H, the abundance fitness worked out at 0.068 ± 0.3.

For S46M, the abundance fitness is -0.197 ± 0.15.

For the variant S46Q, the abundance fitness amounted to 0.054 ± 0.14.

Regarding S46K, the abundance fitness is -0.65 ± 0.18.

Take S46A: the abundance fitness is -0.18 ± 0.11.

Consider S46Y, for which the abundance fitness is -0.003 ± 0.16.

As for S46T, the abundance fitness was -0.07 ± 0.15.

As to S46E, the abundance fitness is -0.039 ± 0.13.

Consider S46L, for which the abundance fitness was -0.168 ± 0.1.

As for S46W, the abundance fitness came to 0.014 ± 0.12.

Take S46G: the abundance fitness is -0.23 ± 0.086.

Turning to S46N, the abundance fitness was found to be 0.039 ± 0.17.

Turning to S46I, the abundance fitness was -0.489 ± 0.23.

On to S46D, for which the abundance fitness was -0.168 ± 0.14.

Take S46C: the abundance fitness is 0.031 ± 0.16.

Take S46F: the abundance fitness came to 0.125 ± 0.15.

Consider C47Q, for which the abundance fitness was -0.833 ± 0.21.

On to C47M, for which the abundance fitness is -0.882 ± 0.17.

For the variant C47S, the abundance fitness is -0.99 ± 0.14.

Take C47V: the abundance fitness is -1.11 ± 0.16.

Take C47K: the abundance fitness was -0.81 ± 0.2.

In the case of C47G, the abundance fitness is -0.867 ± 0.11.

Regarding C47D, the abundance fitness is -0.468 ± 0.17.

As to C47Y, the abundance fitness was -0.811 ± 0.22.

C47H: the abundance fitness is -0.477 ± 0.33.

Take C47R: the abundance fitness was -0.848 ± 0.11.

As to C47E, the abundance fitness was -0.331 ± 0.14.

For the variant C47P, the abundance fitness was -0.657 ± 0.17.

Turning to C47L, the abundance fitness was -0.75 ± 0.14.

Take C47F: the abundance fitness is -0.565 ± 0.24.

Turning to C47W, the abundance fitness is -1.09 ± 0.16.

As for C47A, the abundance fitness was -0.756 ± 0.12.

Turning to C47N, the abundance fitness was -0.5 ± 0.27.

Regarding C47T, the abundance fitness was -0.43 ± 0.15.

Consider W45T, for which the abundance fitness was 0.085 ± 0.16.

For W45P, the abundance fitness is -0.161 ± 0.22.

For W45Y, the abundance fitness was -0.207 ± 0.18.

W45M: the abundance fitness came out at 0.179 ± 0.15.

With W45V, the abundance fitness was 0.115 ± 0.11.

Turning to W45N, the abundance fitness is -0.051 ± 0.18.

Turning to W45D, the abundance fitness is -0.313 ± 0.2.

Turning to W45S, the abundance fitness came to 0.098 ± 0.1.

In the case of W45F, the abundance fitness is -0.159 ± 0.15.

W45A: the abundance fitness was 0.005 ± 0.13.

As to W45E, the abundance fitness came out at 0.083 ± 0.16.

For W45K, the abundance fitness is -0.483 ± 0.27.

For W45R, the abundance fitness is -0.162 ± 0.09.

For the variant W45C, the abundance fitness is -0.101 ± 0.13.

Regarding W45Q, the abundance fitness amounted to 0.109 ± 0.14.

As to W45I, the abundance fitness came out at 0.057 ± 0.19.

For W45G, the abundance fitness stood at 0.025 ± 0.085.

W45H: the abundance fitness was -0.119 ± 0.21.

Turning to W45L, the abundance fitness was -0.218 ± 0.097.

As to C50S, the abundance fitness was -0.222 ± 0.11.

C50N: the abundance fitness was -0.313 ± 0.29.

As to C50E, the abundance fitness was -0.366 ± 0.15.

With C50Y, the abundance fitness was -0.679 ± 0.15.

In the case of C50M, the abundance fitness is -0.819 ± 0.22.

In the case of C50A, the abundance fitness is -0.271 ± 0.13.

For C50F, the abundance fitness was -0.567 ± 0.19.

As for C50R, the abundance fitness was -0.555 ± 0.098.

For the variant C50D, the abundance fitness was -0.17 ± 0.16.

Regarding C50Q, the abundance fitness was -0.767 ± 0.24.

Turning to C50W, the abundance fitness is -0.619 ± 0.12.

Consider C50I, for which the abundance fitness was -0.526 ± 0.28.

With C50K, the abundance fitness was -0.344 ± 0.17.

Take C50L: the abundance fitness was -0.517 ± 0.14.

For C50T, the abundance fitness was -0.624 ± 0.2.

On to H49R, for which the abundance fitness was -0.044 ± 0.12.

As for H49C, the abundance fitness was determined as 0.348 ± 0.19.

In the case of H49D, the abundance fitness is -0.241 ± 0.15.

As to H49M, the abundance fitness was -0.354 ± 0.16.

H49K: the abundance fitness is -0.2 ± 0.18.

In the case of H49N, the abundance fitness was -0.381 ± 0.23.

As to H49W, the abundance fitness was -0.175 ± 0.15.

For the variant H49E, the abundance fitness is -0.247 ± 0.12.

Regarding H49A, the abundance fitness was -0.281 ± 0.11.

With H49G, the abundance fitness is -0.086 ± 0.1.

As to H49P, the abundance fitness was -0.041 ± 0.12.

H49Y: the abundance fitness is -0.169 ± 0.18.

Regarding H49V, the abundance fitness was -0.185 ± 0.099.

As to H49Q, the abundance fitness is -0.141 ± 0.2.

As for H49L, the abundance fitness was -0.213 ± 0.13.

Regarding H49F, the abundance fitness is -0.068 ± 0.19.

Take H49S: the abundance fitness is -0.202 ± 0.11.

With H49I, the abundance fitness is -0.109 ± 0.17.

Regarding H49T, the abundance fitness is -0.16 ± 0.14.

P48T: the abundance fitness was -0.132 ± 0.12.

For P48D, the abundance fitness was -0.16 ± 0.19.

P48G: the abundance fitness was -0.068 ± 0.098.

Turning to P48V, the abundance fitness was -0.04 ± 0.11.

Take P48N: the abundance fitness was -0.678 ± 0.3.

On to P48I, for which the abundance fitness was -0.308 ± 0.27.

With P48C, the abundance fitness is -0.001 ± 0.19.

As to P48S, the abundance fitness is 0.058 ± 0.1.

For the variant P48H, the abundance fitness is -0.057 ± 0.19.

On to P48R, for which the abundance fitness was found to be 0.063 ± 0.1.

P48L: the abundance fitness was -0.126 ± 0.1.

Consider P48W, for which the abundance fitness was -0.622 ± 0.14.

In the case of P48M, the abundance fitness is 0.07 ± 0.12.

On to P48Q, for which the abundance fitness is -0.133 ± 0.15.

Consider P48E, for which the abundance fitness was -0.151 ± 0.12.

For the variant P48F, the abundance fitness is -0.165 ± 0.22.

Consider P48Y, for which the abundance fitness was -0.101 ± 0.16.

As for P48K, the abundance fitness was -0.29 ± 0.18.

For the variant P48A, the abundance fitness was -0.002 ± 0.11.
